Like-named read-outs stand apart in the source and are kept apart here.
Tests used:
[1] = biological target: T1, recombinant tau protein (full-length) (human, UniProt P10636 1-441); assay: SPR (Biacore)
[2] = biological target: T1, recombinant tau protein (full-length); assay: SPR (Biacore); remark: listed apart in the source

T1 sequence (P10636 other isoform, or with tags, fused parts or gaps): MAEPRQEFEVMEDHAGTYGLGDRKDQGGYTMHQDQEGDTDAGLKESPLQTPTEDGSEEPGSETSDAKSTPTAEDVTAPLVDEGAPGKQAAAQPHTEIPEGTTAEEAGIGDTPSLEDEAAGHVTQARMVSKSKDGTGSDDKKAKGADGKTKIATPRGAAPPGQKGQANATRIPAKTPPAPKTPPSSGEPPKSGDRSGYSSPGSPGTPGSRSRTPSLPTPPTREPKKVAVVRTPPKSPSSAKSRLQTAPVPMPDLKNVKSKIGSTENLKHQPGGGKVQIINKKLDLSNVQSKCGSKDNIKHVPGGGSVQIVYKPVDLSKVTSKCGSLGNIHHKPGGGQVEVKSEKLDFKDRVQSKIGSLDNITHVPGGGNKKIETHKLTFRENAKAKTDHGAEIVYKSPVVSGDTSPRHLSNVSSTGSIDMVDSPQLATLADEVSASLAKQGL

Binder	Kd [1] [nM]	Kd [2] [nM]
Armanezumab (antibody, V domains shown) VH: QVQLVQSGAEVKKPGASVKVSCKASGYTFTNHWMHWVRQAPGQGLEWMGAIDPGNSDTSYNQKFKGRVTMTRDTSTSTVYMELSSLRSEDTAVYYCARRDFFGGEYAVDYWGQGTLVTVSS VL: DIVMTQSPLSLPVTPGEPASISCRSSQSLVHSNGNTYLHWYLQKPGQSPQLLIYKVSNRFSGVPDRFSGSGSGTDFTLKISRVEAEDVGVYYCSQSTHVPWTFGQGTKVEIKR	48	
1C9 chimeric humanized antibody (antibody, V domains shown) VH: EVQLQQSGTVLARPGASVKMSCKTSGYTFTNHWMHWVKQRPGQGLEWIGAIDPGNSDTSYNQKFKGQAKLTAVTSASTAFMELSSLTNEDSAVYYCTRRDFFGGEYAVDYWGQGTSVTVSS VL: DVVMTQTPLSLPVSLGDQASISCRSSQSLVHSNGNTYLHWYLQKPGQSPKLLIYKVSNRFSGVPDRFSGSGSGTDFTLKISRVEAEDLGVYFCSQSTHVPWTFGGGTKLEIK		3.91
mouse monoclonal antibody 1C9 (antibody, V domains shown) VH: EVQLQQSGTVLARPGASVKMSCKTSGYTFTNHWMHWVKQRPGQGLEWIGAIDPGNSDTSYNQKFKGQAKLTAVTSASTAFMELSSLTNEDSAVYYCTRRDFFGGEYAVDYWGQGTSVTVSS VL: DVVMTQTPLSLPVSLGDQASISCRSSQSLVHSNGNTYLHWYLQKPGQSPKLLIYKVSNRFSGVPDRFSGSGSGTDFTLKISRVEAEDLGVYFCSQSTHVPWTFGGGTKLEIK	9.51	3.39

Reference: US20190292245A1 (published 2019)
